{"source": "paper PMC11187106", "molecular_target": "CtBP2(WT) (human) (UniProt P56545)", "test": "SEC; analytical Superose 6 3.2/300 GL, 50 mM HEPES (pH 7.2), 150 mM NaCl; CtBP kept at 100 µM, RAI2 variants titrated at ratios 1:0.1 to 1:2; proteins also run alone; assembly stoichiometries estimated from the elution volumes"}
{"substance": "CtBP2(WT), P56545 1-445 (natural protein; other documents disagree on this pair)", "values": [{"measurement": "stoichiometry N", "result": 4}]}
